In patent publication US20200347130A1 (JIANGSU HENGRUI MEDICINE, published 2020):
Changes are numbered by the printed parent chain.

Columns and labels:
Experiment in all cases: peptide ELISA, peptide coated
[1] = biological target: T1, CD96 epitope peptide #3 IAVYHPQYGFYCAYGRPCES (47-66) (human)
T1 construct: also called 3# peptides; #3 antigen fragment
T1 peptide: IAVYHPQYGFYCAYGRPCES
Method: (§1) The epitopes recognized by anti-CD96 antibody were detected by the assay of binding the antibody to different polypeptide fragments of CD96 protein. The fragments of different polypeptides of the CD96 antigen were coated on the microtiter plate. The signal density after the antibody was added was used to judge the binding activity of the antibody and the polypeptide. The specific experimental method is as follows:
(§2) The polypeptides were diluted to a concentration of 20 μg/ml with PBS buffer (Shanghai Yuanpei Biotechnology Co., Ltd. Cat No. B320), pH 7.4, added to a 96-well microtiter plate (Corning, Cat No. CLS3590-100EA) at a volume of 50 μl/well, and coated at 4° C. overnight. After discarding the liquid, 250 μl/well of 5% skim milk (BD skim milk, Cat No. 232100) blocking solution diluted with PBS was added, and the plate was incubated in an incubator at 37° C. for 3 hours. After blocking, the blocking solution was discarded, and the plate was washed 5 times with PBST buffer (pH 7.4 PBS containing 0.05% tween-20). 50 μl/well of different concentrations of the antibodies to be tested (hybridoma purification antibody or humanized antibody) diluted with sample dilution was added, and the plate was incubated in an incubator at 37° C. for 2 hours. […] After washing the plate 5 times with PBST, 50 μl/well of TMB chromogenic substrate (KPL, Cat No. 52-00-03) was added, the plate was incubated at room temperature for 5-15 min, followed by adding 50 μl/well of 1M H₂SO₄ to stop the reaction. The absorption value was read at 450 nm with a microplate reader (Thermo Scientific MuLtiskan MK3), and the epitopes that CD96 antibody can recognize were analyzed.

[2] = biological target: T2, CD96 epitope peptide #21 (310-329) (human)
T2 peptide: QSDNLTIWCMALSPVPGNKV
Method: as §1, §2

[3] = biological target: T3, CD96 epitope peptide #4 (62-81) (human)
T3 peptide: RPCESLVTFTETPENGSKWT
Method: as §1, §2

[4] = biological target: T4, CD96 epitope peptide #18 (265-284) (human)
T4 peptide: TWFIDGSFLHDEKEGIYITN
Method: as §1, §2

[5] = biological target: T5, CD96 epitope peptide #11 (166-185) (human)
T5 peptide: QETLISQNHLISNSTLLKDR
Method: as §1, §2

[6] = biological target: T6, CD96 epitope peptide #15 (220-239) (human)
T6 peptide: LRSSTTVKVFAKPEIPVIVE
Method: as §1, §2

[7] = biological target: T7, CD96 epitope peptide #7 (107-126) (human)
T7 peptide: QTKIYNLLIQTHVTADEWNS
Method: as §1, §2

[8] = biological target: T8, CD96 epitope peptide #6 (92-111) (human)
T8 peptide: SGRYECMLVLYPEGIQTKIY
Method: as §1, §2

[9] = biological target: T9, CD96 epitope peptide #20 (295-314) (human)
T9 peptide: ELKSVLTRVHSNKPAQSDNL
Method: as §1, §2

[10] = biological target: T10, CD96 epitope peptide #10 (149-170) (human)
T10 peptide: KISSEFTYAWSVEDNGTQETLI
Method: as §1, §2

[11] = biological target: T11, CD96 epitope peptide #8 (122-141) (human)
T11 peptide: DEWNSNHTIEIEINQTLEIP
Method: as §1, §2

[12] = biological target: T12, CD96 epitope peptide #9 (137-156) (human)
T12 peptide: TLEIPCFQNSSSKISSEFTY
Method: as §1, §2

[13] = biological target: T13, CD96 epitope peptide #12 (181-200) (human)
T13 peptide: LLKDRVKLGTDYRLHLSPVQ
Method: as §1, §2

[14] = biological target: T14, CD96 epitope peptide #19 (280-299) (human)
T14 peptide: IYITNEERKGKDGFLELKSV
Method: as §1, §2

[15] = biological target: T15, CD96 epitope peptide #2 (32-51) (human)
T15 peptide: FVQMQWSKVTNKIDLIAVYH
Method: as §1, §2

[16] = biological target: T16, CD96 epitope peptide #13 (196-215) (human)
T16 peptide: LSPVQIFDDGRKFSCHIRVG
Method: as §1, §2

[17] = biological target: T17, CD96 epitope peptide #16 (235-254) (human)
T17 peptide: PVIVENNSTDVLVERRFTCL
Method: as §1, §2

[18] = biological target: T18, CD96 epitope peptide #22 (325-344) (human)
T18 peptide: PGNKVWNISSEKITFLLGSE
Method: as §1, §2

Measured: binding result

B1: ch1720 (antibody, human IgG4 S228P, kappa, V domains shown)
VH: EFQLQQSGPELVKPGASVKISCKASAYSLTDYNMNWVKQSNGKSLEWIGVINPSYGISSYNQKFKGKATLTVDQSSSTAYMHLNSLTSEDSAVYYCARQLRLPGYFDVWGTGTTVTVSS
VL: DIKMTQSPSSKNASLGERVTITCKASQDINSYLNWFQQKPGKSPKTLIYRASRLVDGVPSRFSGSGSGQDYSLTISSLEYEDMGIYYCLKYDEFPYTFGGGTKLEIKR
notes: also called chimeric antibody corresponding to m1720
binds: [1]

B2: ch1718 (antibody, human IgG4 S228P, kappa, V domains shown)
VH: B1 VH with L29I, S58T, S59D, K63N, G66D, H82Q, R98I, T116I
VL: B1 VL with K11M, N12Y, S31N, S52N, L104V
notes: also called chimeric antibody corresponding to m1718
not listed: [1]
binds: all other assays above
